{"source": "patent US7809428B2", "about": "“Devices for detection and therapy of atheromatous plaque” (The General Hospital Corporation, priority 2001, dated 2010)", "key": {"[1]": {"system": "aortic plaque of atherosclerotic rabbits", "conditions": "rabbit, in vivo", "protocol": "For confocal fluorescence microscopy, selected parts of the aortas were snap frozen in liquid nitrogen and approximately 10-20 μm frozen sections were prepared. These sections underwent laser scanning confocal fluorescence microscopy to detect the tissue distribution of the ce6. The red intracellular fluorescence from ce6 together with green tissue auto-fluorescence was imaged in the cells in 10 μm frozen sections. Sections were examined with a laser scanning confocal fluorescence microscope. A Leica DMR confocal laser fluorescence microscope (Leica Mikroskopie und Systeme GmbH, Wetzler, Germany)(excitation 488 nm argon laser) and 4×−40× air immersion lens or a 100× oil immersion objective was used to image at a resolution of 1024×1024 pixels. […] These channels were overlaid using TCS NT software (Version 1.6.551, Leica Lasertechnik, Heidelberg, Germany) to allow visualization of overlap of red and green fluorescence. These sections were also stained by immunohistochemistry using macrophage specific monoclonal antibodies and conventional H&E staining. Other parts of normal and atherosclerotic aorta were cut into small pieces, weighed and dissolved in sodium hydroxide/SDS and the tissue content of ce6 was determined by spectrofluorimetry as previously described (Hamblin et al (2000) Br. J. Cancer 83:1544). […]"}, "[2]": {"system": "balloon-injured abdominal aorta plaque", "assay": "In vivo photodynamic therapy of rabbit aorta through flowing blood", "experimental": "Animals (one atherosclerotic and one normal rabbit, each injected with Mal-BSA-ce6 24 hours previously; and one atherosclerotic rabbit that received no injection) were anesthetized as before and a cylindrical diffusing tipped fiber optic (length of tip=2 cm, diameter=1 mm) was advanced to a position midway along the balloon-injured abdominal aorta. […] Light was delivered at a fluence rate of approximately 100 mW/cm of diffusing tip and a total fluence of approximately 100 J/cm was delivered. At the conclusion of the illumination, the fiber was withdrawn and the arteriotomy and overlying wound were closed. Animals were sacrificed 48 hours later. […] Complete aortas and iliac arteries were removed from the PDT treated normal and atherosclerotic rabbits and control (no Mal-BSA-ce6 injection) atherosclerotic rabbit and were examined by histology using H&E, Masson Trichrome and Verhoeffs stain."}, "[3]": {"system": "aortic and iliac plaque of atherosclerotic rabbits", "assay": "Intimal surface fluorescence by OMA-LIF system", "type": "in vivo, rabbit", "excerpt": "The second measurement of intimal surface fluorescence was made by the OMA-LIF system described above. At least 15 separate fluorescence measurements were taken from each artery segment. In addition, the iliac artery through which the balloon was passed also sustained an injury due to its relatively small diameter compared to aortic section 5 and, therefore, developed atherosclerosis compared to the uninjured iliac artery. […] Sections 3, 4 and injured iliac of atherosclerotic compared to normal control had p values<0.0001, while section 5 and uninjured iliacs had p values<0.0005. Accordingly, the less severe plaques of section 5 are distinguishable from the macrophage-rich plaques of sections 3 and 4.\nIn FIG. 14a, a marked contrast was seen between a large aortic plaque and an area of the abdominal aorta 5 mm beneath the plaque. In FIG. 14b, another marked contrast was seen between the balloon injured iliac artery and the contralateral normal artery in the same rabbit. […] These spectra were obtained in a rabbit that had received an overdose of anesthesia. […] By palpation of the outside of the artery, the position of the catheter in relation to plaques was determined Thus, a novel method has been developed for targeting a photosensitizer composition to the activated macrophages of a vulnerable plaque with high specificity."}, "[4]": {"system": "experimental atherosclerotic lesions of the aorta", "type": "in vivo, rabbit", "protocol": "Male New Zealand White rabbits weighing 2.5-3.0 kg (Charles River Breeding Laboratories) were maintained on a 2% cholesterol-6% peanut oil diet (ICN) for 3 months. […] The femoral artery was then ligated, and the wound closed. The animals were allowed to recover from anesthesia and then returned to their cages.\nTwo to four millicuries of the ^99mTc-Ap4A-glucoheptonate, ^99mTc-AppCHClppA-glucoheptonate, or ^99mTc-glucoheptonate (control) was injected into marginal ear veins of groups of three rabbits with experimental atherosclerotic lesions. As a control, three unlesioned animals were injected with 2-4 mCi of ^99mTc-Ap4A-glucoheptonate. After radiopharmaceutical administration, serial gamma images were collected every minute for the first 5 minutes, every 2 minutes for the next 25 minutes, and every 5 minutes for the next 2.5 hours. In all of the rabbits, images were acquired in the anterior and lateral decubitus projections, including the heart and aorta, by using a standard field-of-view gamma camera (Series 100, Ohio Nuclear, Solon, Ohio) equipped with a high-resolution parallel-hole collimator and interfaced with a dedicated computer system (Technicare 560, Solon, Ohio). The pulse height analyzer was adjusted to record the 140 KeV photopeak of ^99mTc, and all images were recorded in a 256×256 matrix.\nAfter acquiring the final images, the animals were sacrificed with an overdose of sodium pentobarbital. The aortas were removed, opened along the ventral surface, and mounted on styrofoam blocks. The aortas then were placed on the face of the gamma camera and ex vivo images were recorded for 10 minutes."}, "[5]": {"system": "J774 or RAW264.7 mouse macrophage-like cells versus non-target EMT-6 cells", "assay": "Cellular uptake of conjugates and free ce6", "type": "cell-based", "conditions": "J774 and EMT-6 cells", "protocol": "J774.A1 (J774) and RAW 264.7 mouse macrophage-like cell lines, together with EMT-6 mouse mammary […] cells, were obtained from ATCC (Rockville, Md.). Cells were grown in RPMI 1640 media containing HEPES, glutamine, 10% fetal calf serum (FCS), 100 U/ml penicillin and 100 μg/ml streptomycin. They were passaged by washing with phosphate buffered saline (PBS) without Ca^2+ and Mg^2+ and by adding trypsin-EDTA to the plate for 10 minutes at 37° C.\nFor cellular uptake studies, cells were grown to approximately 90% confluency in twenty-four well plates and the conjugate or photosensitizer was added in about 1 ml medium containing approximately 10% serum to each well. […] The trypsin supernatant was checked for the presence of fluorescence to quantify any surface binding which might easily be removed by trypsin. The fluorescence was measured using an excitation wavelength of 400 nm and the emission scanned from 580 to 700 nm in order to calculate the peak area (λmax=664 nm). A series of dilutions in approximately 1.5 ml 0.1M NaOH/1% SDS of known concentrations of each separate conjugate and photosensitizer was scanned for fluorescence as above in order to prepare calibration curves to allow for quantitation of the ce6 by conversion of the measured peak areas into mol ce6 equivalent. […] Results were expressed as mol of ce6 per mg cell protein. […]"}, "[6]": {"conditions": "atherosclerotic rabbit, conjugate and light"}}}
{"substance": "Mal-BSA-ce6", "values": [{"measurement": "extracted ce6 fluorescence per gram tissue, difference atherosclerotic versus normal rabbits", "setting": "[1]", "result": "significant"}, {"measurement": "gross damage at necropsy in illuminated aortic section or surrounding tissue", "setting": "[2]; atherosclerotic rabbit, 48 hours after PDT", "result": "no gross damage visible"}, {"measurement": "histological changes in the illuminated section", "setting": "[2]; [6]", "result": "evidence of apoptosis (pyknotic nuclei) and an inflammatory infiltrate in the plaque"}, {"measurement": "necrosis in the illuminated section (histology)", "setting": "[2]; [6]", "result": "some coagulative necrosis"}, {"measurement": "overall effect of treatment on plaque histology", "setting": "[2]; [6]", "result": "favorable modifications of plaque histology and reduced vulnerability"}, {"measurement": "gross damage at necropsy in surrounding tissue", "setting": "[2]; normal rabbit, 48 hours after PDT", "result": "some minor damage visible in the paraaortic muscle"}, {"measurement": "histological changes", "setting": "[2]; normal rabbit, photosensitizer composition and light", "result": "Histological changes were not observed"}, {"measurement": "ill effects of treatment before sacrifice", "setting": "[2]; two rabbits that received composition and light, two days", "result": "no ill effects"}, {"measurement": "intimal surface fluorescence, atherosclerotic versus normal rabbit", "setting": "[3]; arteries with inflamed plaque (sections 3, 4 and injured iliac, p<0.0001)", "result": "highly significant increases in fluorescence"}, {"measurement": "intimal surface fluorescence, atherosclerotic versus normal rabbit", "setting": "[3]; sections 1 and 2", "result": "not significantly different"}]}
{"substance": "^99mTc-glucoheptonate", "values": [{"measurement": "clearance of radioactivity from all organs, t1/2s", "setting": "[4]; rabbit, in vivo", "result": "5 to 10", "unit": "min"}, {"measurement": "organs in which radioactivity accumulated", "setting": "[4]; rabbit, in vivo", "result": "accumulated in the kidneys and bladder"}, {"measurement": "accumulation of radioactivity in the aortic lesions", "setting": "[4]; rabbits with experimental atherosclerosis", "result": "no evidence of specific accumulation in the aortic lesions"}]}
{"substance": "chlorin e6 [ce6]", "values": [{"measurement": "uptake of unbound ce6 by receptor-positive and receptor-negative cells", "setting": "[5]", "result": "indiscriminate uptake"}]}
